Source: US20160264649A1

Columns and labels:
Test in all cases: cell-based or functional assay
HIV-1 CAAN Env (HIV-1) = target: HIV-1 CAAN Env (HIV-1)
HIV-1 AC10 Env (HIV-1) = target: HIV-1 AC10 Env (HIV-1)
[1] = target: HIV-1 REJ04541 Env (HIV-1)
HIV-1 ZM214 Env (HIV-1) = target: HIV-1 ZM214 Env (HIV-1)
[2] = target: HIV-1 JR-FL Env E168K (HIV-1)
HIV-1 CAP45 Env (HIV-1) = target: HIV-1 CAP45 Env (HIV-1)
HIV-1 ZM249 Env (HIV-1) = target: HIV-1 ZM249 Env (HIV-1)
HIV-1 TR0.11 Env (HIV-1) = target: HIV-1 TR0.11 Env (HIV-1)
[3] = target: HIV-1 THRO.18 Env (HIV-1)
HIV-1 DU422 Env (HIV-1) = target: HIV-1 DU422 Env (HIV-1)
HIV-1 ZM233 Env (HIV-1) = target: HIV-1 ZM233 Env (HIV-1)
[4] = target: HIV-1 JR-CSF Env Y318A (HIV-1) (UniProt P20871)
[5] = target: MuLV envelope (control pseudovirus)
HIV-1 ADA Env (HIV-1) = target: HIV-1 ADA Env (HIV-1)
HIV-1 Du172 Env (HIV-1) = target: HIV-1 Du172 Env (HIV-1)
[6] = target: HIV-1 92RW020 Env (HIV-1)
HIV-1 PVO.4 Env (HIV-1) = target: HIV-1 PVO.4 Env (HIV-1)
HIV-1 DU156 Env (HIV-1) = target: HIV-1 DU156 Env (HIV-1)
[7] = target: HIV-1 JR-CSF Env (wild-type) (HIV-1) (UniProt P20871)
[8] = target: HIV-1 JR-CSF Env I309A (HIV-1) (UniProt P20871)
[9] = target: HIV-1 Env of isolate MGRM-D-001 (subtype D) (HIV-1)
[10] = target: HIV-1 Env of isolate MGRM-F1-016 (subtype F) (HIV-1)
[11] = target: HIV-1 Env of isolate MGRM-D-012 (subtype D) (HIV-1)
[12] = target: HIV-1 Env of isolate MGRM-D-022 (subtype D) (HIV-1)
[13] = target: HIV-1 Env of isolate MGRM-D-013 (subtype D) (HIV-1)
[14] = target: HIV-1 Env of isolate MGRM-F1-008 (subtype F) (HIV-1)
[15] = target: HIV-1 Env of pseudovirus isolate MGRM-G-016 (subtype G) (HIV-1)
[16] = target: HIV-1 Env of isolate MGRM-F1-010 (subtype F) (HIV-1)
[17] = target: HIV-1 Env of isolate MGRM-F1-017 (subtype F) (HIV-1)
[18] = target: HIV-1 Env of isolate MGRM-D-018 (subtype D) (HIV-1)
[19] = target: HIV-1 Env of isolate MGRM-D-004 (subtype D) (HIV-1)
[20] = target: HIV-1 Env of pseudovirus isolate MGRM-G-006 (subtype G) (HIV-1)
[21] = target: HIV-1 Env of isolate 92UG046 (subtype D) (HIV-1)
[22] = target: HIV-1 Env of isolate MGRM-D-016 (subtype D) (HIV-1)
[23] = target: HIV-1 Env of isolate MGRM-F1-021 (subtype F) (HIV-1)
[24] = target: HIV-1 Env of isolate MGRM-F1-006 (subtype F) (HIV-1)
[25] = target: HIV-1 Env of isolate MGRM-F1-015 (subtype F) (HIV-1)
[26] = target: HIV-1 Env of isolate 92UG024 (subtype D) (HIV-1)
[27] = target: HIV-1 Env of pseudovirus isolate MGRM-G-015 (subtype G) (HIV-1)
[28] = target: HIV-1 Env of isolate 92UG001 (subtype D) (HIV-1)
[29] = target: HIV-1 Env of pseudovirus isolate MGRM-G-025 (subtype G) (HIV-1)
[30] = target: HIV-1 Env of isolate MGRM-F1-023 (subtype F) (HIV-1)
[31] = target: HIV-1 Env of isolate MGRM-D-029 (subtype D) (HIV-1)
[32] = target: HIV-1 Env of pseudovirus isolate MGRM-G-017 (subtype G) (HIV-1)
[33] = target: HIV-1 Env of pseudovirus isolate MGRM-G-011 (subtype G) (HIV-1)
[34] = target: HIV-1 Env of isolate MGRM-D-011 (subtype D) (HIV-1)
[35] = target: HIV-1 Env of isolate MGRM-D-014 (subtype D) (HIV-1)
[36] = target: HIV-1 Env of isolate MGRM-F1-014 (subtype F) (HIV-1)
[37] = target: HIV-1 Env of isolate MGRM-F1-012 (subtype F) (HIV-1)
[38] = target: HIV-1 Env of pseudovirus isolate MGRM-G-019 (subtype G) (HIV-1)
[39] = target: HIV-1 Env of isolate 98CN006 (subtype CRF08_BC) (HIV-1)
[40] = target: HIV-1 Env of pseudovirus isolate MGRM-G-004 (subtype G) (HIV-1)
[41] = target: HIV-1 Env of isolate MGRM-F1-020 (subtype F) (HIV-1)
[42] = target: HIV-1 Env of isolate 98CN009 (subtype CRF07_BC) (HIV-1)
[43] = target: HIV-1 Env of isolate 92UG005 (subtype D) (HIV-1)
[44] = target: HIV-1 Env of isolate MGRM-D-005 (subtype D) (HIV-1)
[45] = target: HIV-1 Env of pseudovirus isolate MGRM-G-014 (subtype G) (HIV-1)
[46] = target: HIV-1 Env of pseudovirus isolate MGRM-G-009 (subtype G) (HIV-1)
[47] = target: HIV-1 Env of pseudovirus isolate MGRM-G-028 (subtype G) (HIV-1)
[48] = target: HIV-1 Env of isolate 92UG114 (subtype D) (HIV-1)
[49] = target: HIV-1 Env of isolate MGRM-D-026 (subtype D) (HIV-1)
[50] = target: HIV-1 Env of isolate MGRM-D-003 (subtype D) (HIV-1)
[51] = target: HIV-1 Env of isolate MGRM-D-028 (subtype D) (HIV-1)
[52] = target: HIV-1 Env of isolate MGRM-F1-004 (subtype F) (HIV-1)
[53] = target: HIV-1 Env of isolate MGRM-D-024 (subtype D) (HIV-1)
[54] = target: HIV-1 Env of pseudovirus isolate MGRM-G-024 (subtype G) (HIV-1)
[55] = target: envelope of aMLV pseudovirus (negative control)
[56] = target: HIV-1 Env of isolate MGRM-D-008 (subtype D) (HIV-1)
[57] = target: HIV-1 Env of pseudovirus isolate MGRM-G-001 (subtype G) (HIV-1)
[58] = target: HIV-1 Env of isolate MGRM-D-002 (subtype D) (HIV-1)
[59] = target: HIV-1 Env of pseudovirus isolate MGRM-G-027 (subtype G) (HIV-1)
[60] = target: HIV-1 Env of isolate MGRM-D-020 (subtype D) (HIV-1)
[61] = target: HIV-1 Env of isolate MGRM-F1-022 (subtype F) (HIV-1)
[62] = target: HIV-1 Env of isolate MGRM-F1-013 (subtype F) (HIV-1)
[63] = target: HIV-1 Env of isolate MGRM-D-021 (subtype D) (HIV-1)
[64] = target: HIV-1 Env of pseudovirus isolate MGRM-G-013 (subtype G) (HIV-1)
[65] = target: HIV-1 Env of isolate MGRM-F1-018 (subtype F) (HIV-1)
[66] = target: HIV-1 Env of isolate MGRM-D-019 (subtype D) (HIV-1)

B1: 1503_H05 (PG16) (TCN-119) (antibody, V domains shown)
VH: QEKLVESGGGVVQPGGSLRLSCLASGFTFHKYGMHWVRQAPGKGLEWVALISDDGMRKYHSDSMWGRVTISRDNSKNTLYLQFSSLKVEDTAMFFCAREAGGPIWHDDVKYYDFNDGYYNYHYMDVWGKGTIVTVSS
VL: QSALTQPASVSGSPGQTITISCNGTRSDVGGFDSVSWYQQSPGKAPKVMVFDVSHRPSGISNRFSGSKSGNTASLTISGLHIEDEGDYFCSSLTDRSHRIFGGGTKVTVLG
IC50, TZM-bl pseudovirus neutralization (HIV-1 CAAN Env (HIV-1)): 13.5 µg/mL | IC50, TZM-bl pseudovirus neutralization (HIV-1 AC10 Env (HIV-1)): < 0.01 µg/mL | IC50, TZM-bl pseudovirus neutralization [1]: 0.22 µg/mL | IC50, TZM-bl pseudovirus neutralization (HIV-1 ZM214 Env (HIV-1)): > 25 µg/mL | IC50, TZM-bl pseudovirus neutralization [2]: 0.002 µg/mL | IC50, TZM-bl pseudovirus neutralization (HIV-1 CAP45 Env (HIV-1)): < 0.01 µg/mL | IC50, TZM-bl pseudovirus neutralization (HIV-1 ZM249 Env (HIV-1)): < 0.01 µg/mL | IC50, TZM-bl pseudovirus neutralization (HIV-1 TR0.11 Env (HIV-1)): 4.3 µg/mL | IC50, TZM-bl pseudovirus neutralization [3]: 4.12 µg/mL | IC50, TZM-bl pseudovirus neutralization (HIV-1 DU422 Env (HIV-1)): 0.71 µg/mL | IC50, TZM-bl pseudovirus neutralization (HIV-1 ZM233 Env (HIV-1)): < 0.01 µg/mL | IC50, TZM-bl pseudovirus neutralization [4]: > 1 µg/mL | IC50, TZM-bl pseudovirus neutralization [5]: > 25 µg/mL | IC50, TZM-bl pseudovirus neutralization (HIV-1 ADA Env (HIV-1)): 0.003 µg/mL | IC50, TZM-bl pseudovirus neutralization (HIV-1 Du172 Env (HIV-1)): < 0.01 µg/mL | IC50, TZM-bl pseudovirus neutralization [6]: 0.02 µg/mL | IC50, TZM-bl pseudovirus neutralization (HIV-1 PVO.4 Env (HIV-1)): 11 µg/mL | IC50, TZM-bl pseudovirus neutralization (HIV-1 DU156 Env (HIV-1)): < 0.01 µg/mL | IC50, TZM-bl pseudovirus neutralization [7]: 0.001 µg/mL | IC50, TZM-bl pseudovirus neutralization [8]: > 1 µg/mL

B2: PGT-137 (antibody, V domains shown)
VH: EVHLEESGPGLVRPSETLSLTCTASGGSIRGGEWGDSDYHWGWVRHSPEKGLEWIGSIHWRGTTHYNAPFRGRGRLSIDLSRNQFSLRLTSVTAEDTAVYYCVKHKYHDIVMVVPIAGWFDPWGQGLQVTVSS
VL: EIMMTQSPAILSVSPGDRATLSCRASQSVKNNLAWYQKRPGQAPRLLIFDTSSRASGIPARFSGGGSGTEFTLTVNSMQSEDFATYYCQQYEEWPRTFGQGTKVEIK
IC50 (neutralization) [9]: > 50 µg/mL | IC50 (neutralization) [10]: > 50 µg/mL | IC50 (neutralization) [11]: > 50 µg/mL | IC50 (neutralization) [12]: > 50 µg/mL | IC50 (neutralization) [13]: > 50 µg/mL | IC50 (neutralization) [14]: > 50 µg/mL | IC50 [15]: > 50 µg/mL | IC50 (neutralization) [16]: > 50 µg/mL | IC50 (neutralization) [17]: > 50 µg/mL | IC50 (neutralization) [18]: 15.1 µg/mL | IC50 (neutralization) [19]: > 50 µg/mL | IC50 [20]: > 50 µg/mL | IC50 (neutralization) [21]: > 50 µg/mL | IC50 (neutralization) [22]: > 50 µg/mL | IC50 (neutralization) [23]: > 50 µg/mL | IC50 (neutralization) [24]: > 50 µg/mL | IC50 (neutralization) [25]: > 50 µg/mL | IC50 (neutralization) [26]: 0.106 µg/mL | IC50 [27]: > 50 µg/mL | IC50 (neutralization) [28]: > 50 µg/mL | IC50 [29]: > 50 µg/mL | IC50 (neutralization) [30]: > 50 µg/mL | IC50 (neutralization) [31]: > 50 µg/mL | IC50 [32]: 34.9 µg/mL | IC50 [33]: > 50 µg/mL | IC50 (neutralization) [34]: 6.3 µg/mL | IC50 (neutralization) [35]: > 50 µg/mL | IC50 (neutralization) [36]: > 50 µg/mL | IC50 (neutralization) [37]: > 50 µg/mL | IC50 [38]: 0.126 µg/mL | IC50 (neutralization) [39]: 1.22 µg/mL | IC50 [40]: > 50 µg/mL | IC50 (neutralization) [41]: 1.93 µg/mL | IC50 (neutralization) [42]: 5.06 µg/mL | IC50 (neutralization) [43]: > 50 µg/mL | IC50 (neutralization) [44]: > 50 µg/mL | IC50 [45]: > 50 µg/mL | IC50 [46]: > 50 µg/mL | IC50 [47]: > 50 µg/mL | IC50 (neutralization) [48]: > 50 µg/mL | IC50 (neutralization) [49]: > 50 µg/mL | IC50 (neutralization) [50]: > 50 µg/mL | IC50 (neutralization) [51]: > 50 µg/mL | IC50 (neutralization) [52]: 40.3 µg/mL | IC50 (neutralization) [53]: > 50 µg/mL | IC50 [54]: 0.051 µg/mL | IC50 [55]: > 50 µg/mL | IC50 (neutralization) [56]: > 50 µg/mL | IC50 [57]: 41.7 µg/mL | IC50 (neutralization) [58]: > 50 µg/mL | IC50 [59]: 0.228 µg/mL | IC50 (neutralization) [60]: > 50 µg/mL | IC50 (neutralization) [61]: 6.23 µg/mL | IC50 (neutralization) [62]: > 50 µg/mL | IC50 (neutralization) [63]: > 50 µg/mL | IC50 [64]: > 50 µg/mL | IC50 (neutralization) [65]: > 50 µg/mL | IC50 (neutralization) [66]: > 50 µg/mL
